Test results reported in patent US20220306695A1, “COMPSTATIN ANALOGUES AND THEIR MEDICAL USES” (priority 2019, published 2022).
Positions of bridges follow the written chain, without caps; N, C: chain ends.

B1: Compound B (peptide)
peptide: Ac-ICVWQDWGSHRCT-NH2
modifications: disulfide 2-12
SMILES: CC[C@H](C)[C@H](NC(C)=O)C(=O)N[C@H]1CSSC[C@@H](C(=O)N[C@H](C(N)=O)[C@@H](C)O)NC(=O)[C@H](CCCNC(=N)N)NC(=O)[C@H](Cc2c[nH]cn2)NC(=O)[C@H](CO)NC(=O)CNC(=O)[C@H](Cc2c[nH]c3ccccc23)NC(=O)[C@H](CC(=O)O)NC(=O)[C@H](CCC(N)=O)NC(=O)[C@H](Cc2c[nH]c3ccccc23)NC(=O)[C@H](C(C)C)NC1=O
B2: Compound 15 (peptide)
peptide: Ac-ICIWQDWGEHRCTGAES-NH2
modifications: disulfide 2-12
SMILES: CC[C@H](C)[C@H](NC(C)=O)C(=O)N[C@H]1CSSC[C@@H](C(=O)N[C@H](C(=O)NCC(=O)N[C@@H](C)C(=O)N[C@@H](CCC(=O)O)C(=O)N[C@@H](CO)C(N)=O)[C@@H](C)O)NC(=O)[C@H](CCCNC(=N)N)NC(=O)[C@H](Cc2c[nH]cn2)NC(=O)[C@H](CCC(=O)O)NC(=O)CNC(=O)[C@H](Cc2c[nH]c3ccccc23)NC(=O)[C@H](CC(=O)O)NC(=O)[C@H](CCC(N)=O)NC(=O)[C@H](Cc2c[nH]c3ccccc23)NC(=O)[C@H]([C@@H](C)CC)NC1=O
B3: Compound E (peptide)
peptide: Ac-ICVWQDWGAHSCT-NH2
modifications: disulfide 2-12
SMILES: CC[C@H](C)[C@H](NC(C)=O)C(=O)N[C@H]1CSSC[C@@H](C(=O)N[C@H](C(N)=O)[C@@H](C)O)NC(=O)[C@H](CO)NC(=O)[C@H](Cc2c[nH]cn2)NC(=O)[C@H](C)NC(=O)CNC(=O)[C@H](Cc2c[nH]c3ccccc23)NC(=O)[C@H](CC(=O)O)NC(=O)[C@H](CCC(N)=O)NC(=O)[C@H](Cc2c[nH]c3ccccc23)NC(=O)[C@H](C(C)C)NC1=O
B4: Compound 21 (peptide)
peptide: Ac-ICIWQDWGEHRCS-NH2
modifications: disulfide 2-12
SMILES: CC[C@H](C)[C@H](NC(C)=O)C(=O)N[C@H]1CSSC[C@@H](C(=O)N[C@@H](CO)C(N)=O)NC(=O)[C@H](CCCNC(=N)N)NC(=O)[C@H](Cc2c[nH]cn2)NC(=O)[C@H](CCC(=O)O)NC(=O)CNC(=O)[C@H](Cc2c[nH]c3ccccc23)NC(=O)[C@H](CC(=O)O)NC(=O)[C@H](CCC(N)=O)NC(=O)[C@H](Cc2c[nH]c3ccccc23)NC(=O)[C@H]([C@@H](C)CC)NC1=O
B5: Compound J (peptide)
peptide: Ac-ICVWQDWGEHRCTEGE-NH2
modifications: disulfide 2-12
SMILES: CC[C@H](C)[C@H](NC(C)=O)C(=O)N[C@H]1CSSC[C@@H](C(=O)N[C@H](C(=O)N[C@@H](CCC(=O)O)C(=O)NCC(=O)N[C@@H](CCC(=O)O)C(N)=O)[C@@H](C)O)NC(=O)[C@H](CCCNC(=N)N)NC(=O)[C@H](Cc2c[nH]cn2)NC(=O)[C@H](CCC(=O)O)NC(=O)CNC(=O)[C@H](Cc2c[nH]c3ccccc23)NC(=O)[C@H](CC(=O)O)NC(=O)[C@H](CCC(N)=O)NC(=O)[C@H](Cc2c[nH]c3ccccc23)NC(=O)[C@H](C(C)C)NC1=O
B6: Compound F (peptide)
peptide: Ac-ICVWQDWGEHSCT-NH2
modifications: disulfide 2-12
SMILES: CC[C@H](C)[C@H](NC(C)=O)C(=O)N[C@H]1CSSC[C@@H](C(=O)N[C@H](C(N)=O)[C@@H](C)O)NC(=O)[C@H](CO)NC(=O)[C@H](Cc2c[nH]cn2)NC(=O)[C@H](CCC(=O)O)NC(=O)CNC(=O)[C@H](Cc2c[nH]c3ccccc23)NC(=O)[C@H](CC(=O)O)NC(=O)[C@H](CCC(N)=O)NC(=O)[C@H](Cc2c[nH]c3ccccc23)NC(=O)[C@H](C(C)C)NC1=O
B7: Compound 3 (peptide)
peptide: Ac-ESSAICIWQDWGEHRCT-NH2
modifications: disulfide 6-16
SMILES: CC[C@H](C)[C@H](NC(=O)[C@H](C)NC(=O)[C@H](CO)NC(=O)[C@H](CO)NC(=O)[C@H](CCC(=O)O)NC(C)=O)C(=O)N[C@H]1CSSC[C@@H](C(=O)N[C@H](C(N)=O)[C@@H](C)O)NC(=O)[C@H](CCCNC(=N)N)NC(=O)[C@H](Cc2c[nH]cn2)NC(=O)[C@H](CCC(=O)O)NC(=O)CNC(=O)[C@H](Cc2c[nH]c3ccccc23)NC(=O)[C@H](CC(=O)O)NC(=O)[C@H](CCC(N)=O)NC(=O)[C@H](Cc2c[nH]c3ccccc23)NC(=O)[C@H]([C@@H](C)CC)NC1=O
B8: Compound C (peptide)
peptide: Ac-ESSAICVWQDWGEHRCT-NH2
modifications: disulfide 6-16
SMILES: CC[C@H](C)[C@H](NC(=O)[C@H](C)NC(=O)[C@H](CO)NC(=O)[C@H](CO)NC(=O)[C@H](CCC(=O)O)NC(C)=O)C(=O)N[C@H]1CSSC[C@@H](C(=O)N[C@H](C(N)=O)[C@@H](C)O)NC(=O)[C@H](CCCNC(=N)N)NC(=O)[C@H](Cc2c[nH]cn2)NC(=O)[C@H](CCC(=O)O)NC(=O)CNC(=O)[C@H](Cc2c[nH]c3ccccc23)NC(=O)[C@H](CC(=O)O)NC(=O)[C@H](CCC(N)=O)NC(=O)[C@H](Cc2c[nH]c3ccccc23)NC(=O)[C@H](C(C)C)NC1=O
B9: Compound 19 (peptide)
peptide: Ac-ICIWQDWGAHSCT-NH2
modifications: disulfide 2-12
SMILES: CC[C@H](C)[C@H](NC(C)=O)C(=O)N[C@H]1CSSC[C@@H](C(=O)N[C@H](C(N)=O)[C@@H](C)O)NC(=O)[C@H](CO)NC(=O)[C@H](Cc2c[nH]cn2)NC(=O)[C@H](C)NC(=O)CNC(=O)[C@H](Cc2c[nH]c3ccccc23)NC(=O)[C@H](CC(=O)O)NC(=O)[C@H](CCC(N)=O)NC(=O)[C@H](Cc2c[nH]c3ccccc23)NC(=O)[C@H]([C@@H](C)CC)NC1=O
B10: Compound 6 (peptide)
peptide: Ac-ICIWQDWGSHRCT-NH2
modifications: disulfide 2-12
SMILES: CC[C@H](C)[C@H](NC(C)=O)C(=O)N[C@H]1CSSC[C@@H](C(=O)N[C@H](C(N)=O)[C@@H](C)O)NC(=O)[C@H](CCCNC(=N)N)NC(=O)[C@H](Cc2c[nH]cn2)NC(=O)[C@H](CO)NC(=O)CNC(=O)[C@H](Cc2c[nH]c3ccccc23)NC(=O)[C@H](CC(=O)O)NC(=O)[C@H](CCC(N)=O)NC(=O)[C@H](Cc2c[nH]c3ccccc23)NC(=O)[C@H]([C@@H](C)CC)NC1=O

Assays:
Human C3 [1] = molecular target: T1, Human C3 (human, UniProt P01024 23-1663); test: cell-based or functional assay
T1 sequence (P01024 23-1663 limits assumed): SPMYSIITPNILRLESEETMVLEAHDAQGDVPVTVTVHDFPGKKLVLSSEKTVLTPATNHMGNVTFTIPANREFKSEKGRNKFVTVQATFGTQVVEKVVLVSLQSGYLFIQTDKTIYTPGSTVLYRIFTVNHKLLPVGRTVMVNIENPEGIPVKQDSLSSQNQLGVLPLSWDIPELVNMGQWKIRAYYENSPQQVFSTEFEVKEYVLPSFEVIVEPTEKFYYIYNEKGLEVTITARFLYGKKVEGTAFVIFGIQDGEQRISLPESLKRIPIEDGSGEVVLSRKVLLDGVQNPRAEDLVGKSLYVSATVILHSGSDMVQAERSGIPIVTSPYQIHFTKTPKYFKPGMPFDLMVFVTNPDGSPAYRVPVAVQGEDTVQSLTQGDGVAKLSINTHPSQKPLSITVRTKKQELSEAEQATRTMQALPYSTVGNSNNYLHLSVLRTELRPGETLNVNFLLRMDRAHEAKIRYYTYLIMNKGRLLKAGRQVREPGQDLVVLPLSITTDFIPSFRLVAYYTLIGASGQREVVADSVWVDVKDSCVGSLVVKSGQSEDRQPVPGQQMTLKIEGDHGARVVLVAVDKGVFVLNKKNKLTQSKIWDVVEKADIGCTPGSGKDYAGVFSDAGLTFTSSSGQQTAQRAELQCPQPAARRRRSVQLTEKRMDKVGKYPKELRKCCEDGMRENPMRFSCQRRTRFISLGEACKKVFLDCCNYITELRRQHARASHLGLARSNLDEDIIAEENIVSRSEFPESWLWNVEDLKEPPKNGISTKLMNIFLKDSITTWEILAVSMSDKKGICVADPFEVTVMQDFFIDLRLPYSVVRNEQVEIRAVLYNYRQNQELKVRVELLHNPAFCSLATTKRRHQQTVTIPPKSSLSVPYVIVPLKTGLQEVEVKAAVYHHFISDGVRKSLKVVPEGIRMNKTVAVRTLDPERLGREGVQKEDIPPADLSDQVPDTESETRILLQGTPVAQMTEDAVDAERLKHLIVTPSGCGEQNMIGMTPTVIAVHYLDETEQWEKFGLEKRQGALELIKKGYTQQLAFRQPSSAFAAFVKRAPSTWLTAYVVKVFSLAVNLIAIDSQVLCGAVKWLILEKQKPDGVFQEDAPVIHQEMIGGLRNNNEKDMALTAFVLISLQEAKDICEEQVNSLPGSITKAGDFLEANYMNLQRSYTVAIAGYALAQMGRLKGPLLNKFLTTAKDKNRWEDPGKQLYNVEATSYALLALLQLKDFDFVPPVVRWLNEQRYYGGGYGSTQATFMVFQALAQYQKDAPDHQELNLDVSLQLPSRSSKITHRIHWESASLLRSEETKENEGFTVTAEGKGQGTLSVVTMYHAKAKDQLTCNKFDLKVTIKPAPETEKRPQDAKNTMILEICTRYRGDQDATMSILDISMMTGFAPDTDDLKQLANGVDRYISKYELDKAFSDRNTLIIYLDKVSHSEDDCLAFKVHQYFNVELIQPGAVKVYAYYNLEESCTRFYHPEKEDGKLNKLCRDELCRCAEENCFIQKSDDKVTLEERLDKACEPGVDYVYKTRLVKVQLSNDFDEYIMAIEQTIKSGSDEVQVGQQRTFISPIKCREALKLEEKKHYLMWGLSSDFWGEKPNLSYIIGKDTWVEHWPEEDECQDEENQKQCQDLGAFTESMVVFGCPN

Human C3 [2] = molecular target: T1, Human C3; test: cell-based or functional assay; remark: listed apart in the source

Binder	CP hemolysis IC50 (Human C3 [1]) [nM]	IC50[nM], inhibition of hemolysis (Human C3 [2]) [nM]
B1	360	
B2	47	< 100
B3	> 1000	
B4	77	< 100
B5	240	
B6	540	
B7	69	< 100
B8	300	
B9	140	< 250
B10	140	< 250
